The results in this text go back to patent US20260070986A1 (AFFIMED, published 2026).

For assay [1], the target named is T1, CD123 on CD123+ cells (EOL-1 and other CD123+ tumour or patient cells) (human, UniProt P26951 19-378).
T1 construct: whole, on cells; also called interleukin-3 receptor
The experiment in a line: flow cytometry on CD123+ EOL-1 cells, anti-human IgG-APC detection. The protocol:
To analyze binding of CD123xCD16A antibody constructs to CD123+ EOL-1 cells, CD123− A-431 cells and CD123− Karpas-299 cells by flow cytometry, 1×10⁵ cells were resuspended in 100 μL FACS buffer in round-bottom 96-well microtiter plates. After washing in FACS buffer, cells were incubated in 100 μL FACS buffer without antibodies or with titrated antibodies starting at a concentration of 100 μg/mL followed by eight 10-fold serial dilutions for 45 min on ice in the dark. After washing twice, cells were incubated with APC-conjugated goat anti-human IgG (H+L)-APC (1/200 dilution) for 30 min on ice in the dark. After washing, binding was measured by flow cytometry and mean fluorescence intensities (MFI) of cell samples were calculated and corrected for background staining using control cells stained with secondary antibodies only.

The target of assay [2] is T2, recombinant human CD16A 158F, biotinylated mFc.silenced/Avi-tagged (human, UniProt P08637 17-208, biotinylated (Avi-tag)).
T2 construct: not shown: silenced mouse Fc (mFc.silenced) and Avi-tag
The assay is described as follows: SPR (Biacore), 37 °C, multi-cycle kinetics, biotin-captured antigen as ligand, antibody construct as analyte, 1:1 binding model. The protocol:
(§1) After each cycle, chip surfaces were regenerated with 6M guanidine-HCl, 0.25M NaOH and reloaded with Biotin Capture reagent. Interaction kinetics were determined by fitting data from multi-cycle kinetics experiments to a simple 1:1 interaction model using the local data analysis option (Rmax and RI) available within Biacore T200 Evaluation Software (v3.1). Referencing was done against a flow cell without captured ligand (Fc2-Fc1, Fc4-Fc3).
(§2) Affinity and kinetic parameters were evaluated for interaction with human CD16A and cynomolgus CD16 using a 1:1 Binding model.
For orientation: SPR reads the build-up and loss of mass on a sensor chip optically.

For assay [3], the target named is T3, recombinant human CD16A 158V, biotinylated mFc.silenced/Avi-tagged (human, UniProt P08637 17-208, biotinylated (Avi-tag)).
T3 construct: not shown: silenced mouse Fc (mFc.silenced) and Avi-tag
Described as above. How it is done: as §1, §2

The target of assay [4] is T4, recombinant cynomolgus CD16, biotinylated mFc.silenced/Avi-tagged (cynomolgus, UniProt Q8SPW2 17-208, biotinylated (Avi-tag)).
T4 construct: not shown: silenced mouse Fc (mFc.silenced) and Avi-tag
The description is as above. The protocol: as §1, §2

T2 sequence (P08637 17-208): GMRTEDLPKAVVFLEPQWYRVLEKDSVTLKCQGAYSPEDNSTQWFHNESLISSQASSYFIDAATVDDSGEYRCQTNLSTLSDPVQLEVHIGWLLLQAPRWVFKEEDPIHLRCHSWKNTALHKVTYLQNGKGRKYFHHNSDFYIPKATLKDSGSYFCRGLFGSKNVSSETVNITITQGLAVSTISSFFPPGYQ
T4 sequence (Q8SPW2 17-208): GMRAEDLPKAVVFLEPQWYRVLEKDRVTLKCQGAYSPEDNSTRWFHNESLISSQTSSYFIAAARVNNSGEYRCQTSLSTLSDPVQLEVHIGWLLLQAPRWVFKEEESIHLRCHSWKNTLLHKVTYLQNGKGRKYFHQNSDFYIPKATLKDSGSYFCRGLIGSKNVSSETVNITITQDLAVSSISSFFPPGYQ
T3 sequence (P08637 17-208 F176V limits assumed): as the sequence (P08637 17-208) above, with F160V counted along it
T1 sequence (P26951 19-378): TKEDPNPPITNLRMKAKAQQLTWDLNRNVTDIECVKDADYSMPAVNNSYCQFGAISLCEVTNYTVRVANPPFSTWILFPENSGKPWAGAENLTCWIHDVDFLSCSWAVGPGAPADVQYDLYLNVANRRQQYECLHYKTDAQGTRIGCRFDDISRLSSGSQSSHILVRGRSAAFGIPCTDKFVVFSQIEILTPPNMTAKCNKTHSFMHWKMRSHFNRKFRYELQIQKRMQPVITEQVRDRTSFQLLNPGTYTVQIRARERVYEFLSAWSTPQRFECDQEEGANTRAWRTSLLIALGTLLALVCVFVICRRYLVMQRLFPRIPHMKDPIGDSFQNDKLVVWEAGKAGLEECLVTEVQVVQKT

B1: scFv-IgAb_265 (CD123-1xCD16a2) (bispecific antibody)
chain 1: QVQLQQSGAEVKKPGASVKVSCKASGYTFTDYYMKWVKQSHGKSLEWMGDIIPSNGATFYNQKFKGKATLTVDRSTSTAYMELSSLRSEDTAVYYCARSHLLRASWFAYWGQGTLVTVSSASTKGPSVFPLAPSSKSTSGGTAALGCLVKDYFPEPVTVSWNSGALTSGVHTFPAVLQSSGLYSLSSVVTVPSSSLGTQTYICNVNHKPSNTKVDKKVEPKSCDKTHTCPPCPAPEFEGGPSVFLFPPKPKDTLMISRTPEVTCVVVAVSHEDPEVKFNWYVDGVEVHNAKTKPREEQYNSTYRVVSVLTVLHQDWLNGKEYKCKVSNKALPAPIEKTISKAKGQPREPQVYTLPPSREEMTKNQVSLTCLVKGFYPSDIAVEWESNGQPENNYKTTPPVLDSDGSFFLYSKLTVDKSRWQQGNVFSCSVMHEALHNHYTQKSLSLSPGGGGGSGGGGSGGGGSGGGGSGGGGSGGGGSSYELTQPLSVSVALGQTARITCGGHNIGSKNVHWYQQKPGQAPVLVIYQDNKRPSGIPERFSGSNSGNTATLTISRAQAGDEADYYCQVWDNYNVLFGCGTKLTVLGGSGGSGGSGGSGGSGGSGGSQVQLVQSGAEVKKPGASVKVSCKASGYTFTSYYMHWVRQAPGQCLEWMGAIEPRYGSTSYAQKFQGRVTMTRDTSTSTVYMELSSLRSEDTAVYYCARGSAYYYDFADYWGQGTLVTVSS
chain 2: not shown
For B1, the EC50 (read off the curve) (usually the concentration needed to bring the measured effect to its halfway point) in assay [1] is roughly 0.4 nM.

B2: scFv-IgAb_264 (CD123-2xCD16a2) (bispecific antibody)
chain 1: QVQLVQSGAEVKKPGASVKMSCKASGYTFTDYYMKWVKQAPGQGLEWIGDIIPSNGATFYNQKFKGKATLTVDRSISTAYMHLNRLRSDDTAVYYCTRSHLLRASWFAYWGQGTLVTVSSASTKGPSVFPLAPSSKSTSGGTAALGCLVKDYFPEPVTVSWNSGALTSGVHTFPAVLQSSGLYSLSSVVTVPSSSLGTQTYICNVNHKPSNTKVDKKVEPKSCDKTHTCPPCPAPEFEGGPSVFLFPPKPKDTLMISRTPEVTCVVVAVSHEDPEVKFNWYVDGVEVHNAKTKPREEQYNSTYRVVSVLTVLHQDWLNGKEYKCKVSNKALPAPIEKTISKAKGQPREPQVYTLPPSREEMTKNQVSLTCLVKGFYPSDIAVEWESNGQPENNYKTTPPVLDSDGSFFLYSKLTVDKSRWQQGNVFSCSVMHEALHNHYTQKSLSLSPGGGGGSGGGGSGGGGSGGGGSGGGGSGGGGSSYELTQPLSVSVALGQTARITCGGHNIGSKNVHWYQQKPGQAPVLVIYQDNKRPSGIPERFSGSNSGNTATLTISRAQAGDEADYYCQVWDNYNVLFGCGTKLTVLGGSGGSGGSGGSGGSGGSGGSQVQLVQSGAEVKKPGASVKVSCKASGYTFTSYYMHWVRQAPGQCLEWMGAIEPRYGSTSYAQKFQGRVTMTRDTSTSTVYMELSSLRSEDTAVYYCARGSAYYYDFADYWGQGTLVTVSS
chain 2: not shown
notes: also called CD123xCD16A ICE
Turning to B2, the figures for the Kd in assay [2], in assay [3] and in assay [4] were 0.567 nM, 0.43 nM and 2.4 nM, respectively. The dissociation rate constant (koff) (in general, the rate constant with which the complex falls apart) in assay [2] turned out to be 0.0036 s⁻¹; in assay [3], 0.0027 s⁻¹; in assay [4], 0.013 s⁻¹. The kon (commonly the second-order rate constant of association) in assay [2] was 6.4e+06 M⁻¹ s⁻¹; in assay [3], 6.3e+06 M⁻¹ s⁻¹; in assay [4], 5.2e+06 M⁻¹ s⁻¹. Further, the “EC50 (read off the curve)” value in assay [1] was roughly 0.4 nM.
